US20100120894A1 (UNIVERSITY OF MASSACHUSETTS, published 2010)

Tests used:
HA-tagged ASC = HA-tagged ASC (human, UniProt Q9ULZ3 1-195, limits assumed); assay: cell-based or functional assay
[1] = target: T1, ASC-YFP stably expressed in HEK293 cells (UniProt Q9ULZ3 1-195); assay: confocal microscopy, HEK293-ASC-YFP cells transfected with PYD-CFP
T1 construct: also called YFP-ASC; HEK293-ASC-YFP; not shown: YFP
Method: Fluorescence intensities of the green (YFP-ASC) and red (PYD-CFP) channels were quantified along selected lines (white lines) and the percentage of ASC-YFP speckles per transfected cells assessed (panel b). c) 293T cells were transfected with expression plasmids encoding HAtagged ASC and CFP-tagged constructs as in panel a. The protein levels of the CFP-tagged PYD proteins in cell lysates were assessed by immunoblot analysis (INPUT, upper panels). Cell extracts were immunoprecipitated (IP) with anti-HA antibodies and immunoblotted (WB) with anti-HA antibody and anti-CFP antibody (lower panel). d) ASC was immunoprecipitated from THP-1 cell lysates primed with Sendai virus, whereas beads without anti-ASC antibody served as a negative control. The presence of ASC, PYHIN-2 and AIM2 was assessed by immunoblot analysis in the cell lysate and the ASC immunoprecipitation. The band above the AIM2 band in the ASC immunoprecipitation corresponds to the heavy chain of the anti-ASC antibody that is also detected by the secondary antibody. E) 293T cells were transfected with a multimerized NF-″B luciferase reporter construct together with fixed amounts of constructs as in (a) alone or together with increasing amounts of ASC. Cellular NF-″B activation was quantified in cell lysates 24 hours after transfection. Data of one representative experiment out of three (panels a, b, c and d) or two (panel e) are depicted.
To study the possibility that these PYHIN proteins associated with ASC in the cytosol, C-terminally tagged CFP PYD-domain fusions were generated. Of note, the putative nuclear localization sequences were predicted to localize to the […] of these molecules. Consistent with these predictions, all of the PYD-CFP fusion proteins were localized in the cytoplasm and formed large cytosolic aggregates in a portion of the cells (FIG. 6).

T1 sequence (Q9ULZ3 whole entry): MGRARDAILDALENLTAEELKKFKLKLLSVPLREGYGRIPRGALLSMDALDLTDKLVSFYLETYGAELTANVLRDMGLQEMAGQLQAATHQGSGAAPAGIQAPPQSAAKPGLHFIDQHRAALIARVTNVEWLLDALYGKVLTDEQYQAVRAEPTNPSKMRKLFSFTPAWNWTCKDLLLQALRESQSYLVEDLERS
Chain of HA-tagged ASC (Q9ULZ3 whole entry): as above

Row | Binder | NF-kappaB luciferase reporter activation in 293T cells (HA-tagged ASC) [fold] | binding result [1]
1 | Full length human AIM2 (AS 1-356) C-terminally tagged with CFP (other, UniProt O14862 1-343, looked up, not shown: large carriers) MESKYKEILLLTGLDNITDEELDRFKFFLSDEFNIATGKLHTANRIQVATLMIQNAGAVSAVMKTIRIFQKLNYMLLAKRLQEEKEKVDKQYKSVTKPKPLSQAEMSPAASAAIRNDVAKQRAAPKVSPHVKPEQKQMVAQQESIREGFQKRCLPVMVLKAKKPFTFETQEGKQEMFHATVATEKEFFFVKVFNTLLKDKFIPKRIIIIARYYRHSGFLEVNSASRVLDAESDQKVNVPLNIIRKAGETPKINTLQTQPLGTIVNGLFVVQKVTEKKKNILFDLSDNTGKMEVLGVRNEDTMKCKEGDKVRLTFFTLSKNGEKLQLTSGVHSTIKVIKAKKKT | ≤ 60 | –
2 | PYHIN2-PYD (1-84) C-terminally tagged with CFP (other, human, UniProt Q16666 1-84, looked up, range 1-84; also called IFI16 PYD; not shown: C-terminal CFP from vector pEFBOS-C-term-CFP) MGKKYKNIVLLKGLEVINDYHFRMVKSLLSNDLKLNLKMREEYDKIQIADLMEEKFRGDAGLGKLIKIFEDIPTLEDLAETLKK | – | no binding

Further lines, results first:

Row | NF-kappaB luciferase reporter activation in 293T cells (HA-tagged ASC) [fold] | binding result [1] | Binder
3 | – | no binding | PYHIN3-PYD (1-84) C-terminally tagged with CFP (other, human, UniProt P41218 1-84, looked up, range 1-84; also called MNDA PYD; not shown: C-terminal CFP from vector pEFBOS-C-term-CFP) MVNEYKKILLLKGFELMDDYHFTSIKSLLAYDLGLTTKMQEEYNRIKITDLMEKKFQGVACLDKLIELAKDMPSLKNLVNNLRK
4 | – | no binding | PYHIN1-PYD (1-84) C-terminally tagged with CFP (other, human, UniProt Q6K0P9 1-84, looked up, range 1-84; also called IFIX PYD; not shown: C-terminal CFP from vector pEFBOS-C-term-CFP) MANNYKKIVLLKGLEVINDYHFRIVKSLLSNDLKLNPKMKEEYDKIQIADLMEEKFPGDAGLGKLIEFFKEIPTLGDLAETLKR
